Stoichiometry N data for 3 substances are collected here from PMC10613254.

Sequence of Cort_(1-76), cortactin N-terminal acidic domain (NTA, residues 1-76) (Q60598 1-76): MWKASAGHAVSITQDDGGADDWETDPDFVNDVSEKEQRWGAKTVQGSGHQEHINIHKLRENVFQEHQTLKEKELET
Sequence of Cort_(1-33) (Q60598 1-33): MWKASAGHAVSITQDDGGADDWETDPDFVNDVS
Sequence of Cort_(18-76) (Q60598 18-76): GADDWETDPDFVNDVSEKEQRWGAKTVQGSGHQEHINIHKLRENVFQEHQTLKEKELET

The assay has as its target bovine brain Arp2/3 complex (bovine) (UniProt P61157). Put plainly: ITC; cortactin constructs titrated into ATP-Arp2/3 complex; temperature and concentrations indicated only in Fig. 4d. On the technique in general: ITC needs no label: the signal is the heat of the interaction.
“Cort_(1-33) (from UniProt Q60598 1-33) (domain or fragment)”: the stoichiometry N (in general, the number of molecules, sites or subunits per partner or assembly) was determined as 1.
The substance “Cort_(1-76), cortactin N-terminal acidic domain (NTA, residues 1-76) (from UniProt Q60598 1-76) (domain or fragment)” returned a stoichiometry N of 1.
As for “Cort_(18-76) (from UniProt Q60598 18-76) (domain or fragment)”, the stoichiometry N came out at 1.
